Results reported in paper doi:10.1101/2025.03.09.642192.
pKd: −log10 of the molar value.

Tests used:
[1] = target: HAdV-C5 hexon protein (HAdV-C5) (UniProt P04133); test: SPR
[2] = target: purified hexon protein from ChAdOx1 (chimpanzee adenovirus Y25 (ChAdOx1)); test: SPR

Sequence of HAdV-C5 hexon protein (HAdV-C5) (P04133 whole entry): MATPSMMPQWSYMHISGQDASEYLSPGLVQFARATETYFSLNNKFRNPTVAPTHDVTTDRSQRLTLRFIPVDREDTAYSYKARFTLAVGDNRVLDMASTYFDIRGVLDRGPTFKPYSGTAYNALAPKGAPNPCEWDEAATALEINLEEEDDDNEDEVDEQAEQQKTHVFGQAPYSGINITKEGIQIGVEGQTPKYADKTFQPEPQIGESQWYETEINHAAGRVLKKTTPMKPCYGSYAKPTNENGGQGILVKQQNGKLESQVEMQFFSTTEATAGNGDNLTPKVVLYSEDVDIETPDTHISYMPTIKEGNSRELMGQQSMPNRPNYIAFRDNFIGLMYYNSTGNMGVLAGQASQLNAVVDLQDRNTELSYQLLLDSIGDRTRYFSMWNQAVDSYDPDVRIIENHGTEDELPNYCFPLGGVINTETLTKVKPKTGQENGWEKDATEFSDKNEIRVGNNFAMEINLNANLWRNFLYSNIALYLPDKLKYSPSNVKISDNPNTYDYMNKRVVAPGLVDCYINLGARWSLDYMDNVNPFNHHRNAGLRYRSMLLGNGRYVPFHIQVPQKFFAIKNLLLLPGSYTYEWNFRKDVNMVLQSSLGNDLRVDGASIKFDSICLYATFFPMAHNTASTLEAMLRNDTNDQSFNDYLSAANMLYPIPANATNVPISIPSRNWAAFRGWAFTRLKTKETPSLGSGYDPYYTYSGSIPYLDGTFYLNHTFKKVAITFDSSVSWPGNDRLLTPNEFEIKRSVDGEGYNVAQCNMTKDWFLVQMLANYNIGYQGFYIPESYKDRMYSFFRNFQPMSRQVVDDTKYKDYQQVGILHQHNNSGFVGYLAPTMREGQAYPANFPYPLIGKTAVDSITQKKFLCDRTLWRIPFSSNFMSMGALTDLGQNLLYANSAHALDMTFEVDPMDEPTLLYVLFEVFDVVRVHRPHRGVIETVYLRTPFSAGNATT

platelet factor 4 (PF4) (natural protein)
pKd [1]: 6.12
pKd [2]: 6.53
